Data: the RNAGym collection of RNA variant scans (doi:10.1073/pnas.2313332121)
Variants at the floor of the assay were thinned out.

B1: TPR 5TU (parent)
chain: GGAUCUUCUCGAUCUAACAAAAAAGACAAAUCUGCCACAAAGCUUGAGAGCAUCUUCGGAUGCAGAGGCGGCAGCCUUCGGUGGCGCGAUAGCGCCAACGUUCUCAACUAUGACACGCAAAACGCGUGCUCCGUUGAAUGGAGUUUAUCAUG

Variants of: B1
Test: polymerase ribozyme fitness, log enrichment relative to wild type (log ratio); higher = more active; in vitro selection for triplet polymerase activity
Procedure, shortened: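 A single round of triplicate in vitro selection, including frozen incubation at −7 °C, was applied to PCR-built, transcribed mutant libraries of each subunit of a heterodimeric triplet polymerase ribozyme. Illumina sequencing of input and output libraries retained genotypes with ≥10 input reads and ≥1 read per output. Fitness is the base-2 logarithm of genotype enrichment divided by wild-type enrichment, from inverse-variance-weighted replicate averages.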

Variant | polymerase ribozyme fitness (log ratio)
C36A C85A C118U | -3.82
A28G U33A A40U C87U G92A U127A G152U | -3.85
G11A A12G A52G U56A G81U | -2.09
G25C G46A G50U G83A C95A A97G U127G | ≤ -4.2
A16U C93U C116U G117U A121G | -2.05
U55C G124C | -1.14
C10G C79G | ≤ -4.2
C5A U33G C38U A49C G67C G92C | ≤ -4.2
C36U U61A C96G G133A | -3.93
U31G G92U U127G | -4.07
A40G C85A G133U | ≤ -4.2
G48U C85U G117U A122U | 0.609
C14G U55A | -2.86
A19C | 0.425
A28U A47G C96A G141A | ≤ -4.2
G88C C118G G140A | ≤ -4.2
C51G A66U G67A C118U | ≤ -4.2
A3U C8G C51A A89G U90G A120U G133C | ≤ -4.2
U9C G11U A16G C51G C93G G112U | ≤ -4.2
C32U C36G A39U G59U A120G | -4.07
A47C U56C C93U A106C | -4.09

Variant | polymerase ribozyme fitness (log ratio)
U101G U144C | -1.9
A41G C43A G59C | ≤ -4.2
C5G A21U C27U G46A G94C C105G G126A | ≤ -4.2
U9G C35U G48U U56G A60C G74A C96G U104G A107U | ≤ -4.2
U101A C131U | 0.454
C76A G92C A98U A142U | -2.32
A3U A147C | -0.51
U61A G62A | -1.48
A20G A24G U53A A91G A97U U109C U130A G141A A142C | ≤ -4.2
U4A U6A A40U G46C C96A C118A | -3.94
A97U G124U C149G | -3.65
A22G U55A G83U C129A | -3.65
A37C C72U G88C A89U A138U U145G | ≤ -4.2
U13A U61A | -1.8
A22U U55A C57A C85G | -1.44
A24U A39U U56A G94A | -3.21
C54G U56G G92A | ≤ -4.2
C85G A115U | -3.56
C8A C14G A21G G25A U45C C75A G81U C85G C87G | ≤ -4.2
G67C C93A G133A U151G | ≤ -4.2
A28U G48C C85A A97U A122G G143A U146C | ≤ -4.2

Variant | polymerase ribozyme fitness (log ratio)
A20U A52C C93U | -3.12
A26U C85U U146G | -1.93
U9G G141U | -2.58
G34A A37G U61C | ≤ -4.2
U33A U56A C93A G94A A110C A120G U134G U145G | ≤ -4.2
A12U A29C C87A G94U | ≤ -4.2
G59U C87U | -0.949
A19C G80A C96U C99U G124A | 0.098
C27U U31C A52G U134C | -0.377
U4C G58A C103A G124A | -3.54
G46A G67A C87A A97C G143C | ≤ -4.2
A41G G92A C99U G126C C149A | ≤ -4.2
A66G U104A U134G G136C | ≤ -4.2
U7G U55A | -3.28
U15G C54G G81A C95U | -2.2
A21G U31A A41G C51U C87A C118A U139A C149G | ≤ -4.2
C85U G88A | -3.73
A16U G50A G92U A98G C132G A142U | ≤ -4.2
C32U C75U G81A G84C A121C U127C A138G G140A | ≤ -4.2
A47G C85U | -1.36
C8U A22U A40U A47C | ≤ -4.2

Variant | polymerase ribozyme fitness (log ratio)
U4G C99U | -0.868
G11A A23C A29C A30U C36U U44A A73U G81A C125U G143U | ≤ -4.2
A47C G59A C85G | -2.62
A29C C63A C87U U101C A115C G117C G133A | ≤ -4.2
C14A A20G C79A G94C G141A | ≤ -4.2
C5A C57A C76U G81A G92C C132U | -2.21
A3U C87A | -3.25
C51U G92U C93U C95U | -2.56
U6A C85U C95A A120G | -1.78
U56A A106C U109G C114U C118A | ≤ -4.2
A19C C38G G70A G80C A98G C118U A150U | -3.77
A21U U55A U56A G71U | -1.72
A52G C85A A89G | -3.57
U55G A73G | -0.595
C69G G74U A89U A98U | -2.01
U13A A47U G86U C132U G140A | -3.17
G80C G81U | 0.0733
G68A A98U | -3.61
A23U A40U C51U U78G | ≤ -4.2
U55A C99G | -1.61
A97U A137U | ≤ -4.2
